Reference: the DeepSol protein solubility set

assay: soluble on expression in E. coli; label from the status in PepcDB or PDB records

Soluble on expression in E. coli, not soluble:
MGSDKIHHHHHHMKIVTYSKNVFIPLTRNCRNRCDYCGFRSEEIGVMSAEEVRKILSAARGAKEALFTFGERPDEVYPEFKAMLLEMGYKSMVDYILEMNKIAVEMGFLPHTNAGILSKEEMRKLKPYNASMGLMLEQAVELECHANSPGKKPEVRIKMIRDAGKLQIPFTTGILVGIGEGREDRLYSLEIIAEIQDNYGHIQEVIVQNFKPKKGTPMENTPPPTLEEMLEAVKAAREILPQEVAIQIPPNLVDDIYPFLKAGANDVGGISNVTHDYINPESPWPEVERLERALRGEFILKERLPIYPRFVKLKWYGEALEPLIEKYSDADGYARP
MGSDKIHHHHHHMKKATLKDIAEYFGVSISTVSRALSGKPGVSSELREKILEKAREIGYTPNLMALGLKKGNTRTVGVLIPELSANFFADIVSSIEKSLFHLGYRLILCSTDDDPVKEREHLQLLLDQKVEGILSAPVNVKENKDIYNSIINHFKIPVVFFDRLVEGVDSDFVISDNREGMEILVNYLVKHGHKKIGLIHPLRGSFTGEERLKGFLLFKDSIEIREEWIRDGRSSEQGGYESFLRIMTSQERPTAIVIGNNLMTLGVLKAAKELNIKIPEDISLVSFDDAYWNEIFDPPITCVRQDPQQIGLIAATILLDRMKNRKKPSPRMQVVLKVKFVERSSVRTIKTLKDFS
MGSDKIHHHHHHMKKILFLFLAACFFFSCEKETIVIPQQHAGRTVLAFFWADNSLNSSLRDNIQTMMQGLQAMKDSAALLVYWDGEASDISWPEPCIVEYVTNGQGGINSLSKGTIDAMMADKNTSIYDLIGIGNIRKKYPPQTSTEKTVMQTVIGDMMSAYPSESYGIIFGSHGSGWLPTITGTRSIGQDGGRYSSDTALIPELAEVLRTVNPQKFDFVLFDACMMGCAEVYYELKDAARYCIASVLDIPAAGFPYASVMPYLYENAIKDYLEPICKDYIDYYNYIGWGTISAVDCNQMEGLAEAVRSVILSNQDSLKNVDTADLQQYGKGSSSFKGYAYDMLQFIGKLCGGMAPDDFTQQLKKTVIYTDYTHDPTSSLYRIDGDNYSGMGMYIPNSFTTPKYLLWNNYFKSSIAWYHASGWAETESIWGN
MGSDKIHHHHHHMKKKNTTPTPHDATFRQFLTQPDIARDFMELHLPAELRAICDLSTLKLESGSFVEDDLRQYFSDVLYSLKTTAGDGYIHVLVEHQSTPDKHMAFRLIRYAVAAMQRHLEAGHKKLPLVIPVLFYTGKRSPYPYSTRWLDEFDDTALADKLYSSAFPLVDVTVIPDDEIAGHRSMAALTLLQKHIHQRDLAELVDRLAPILLAGYLSSSQVISLVHYIVQAGETSDAEAFVRELAQRVPQHGDALMTIAQQLEQKGIEKGIQLGEQRGIEKGRSEGEREATLKIARTMLQNCIDRNTVMKMTGLTEDDLAQIRH
MGSDKIHHHHHHMKKLLLTAAITLTMPFAAHAGSEFVEGDATLAGEAELGATLTTGNTDTSSFKARLALKQELGDWENEYVFEGLYKEDTEEVTAKRYFLGVQGDYQINDVSYLFANTNYEVDPFTGYDFTSTTSAGYGHRFIDTDRMSLKAEAGPGYIYQQLDEESALAEGYDSDDSVVAHAVIDFQTKISDSSKFQQKFVADWGSKLDARSETSLTANIVGALAMKFAVIVRYNSEPLDDKESTDTETNMTLLYAF
MGSDKIHHHHHHMKKLNLQCDLFNNNNLNFSDKGPLQDVFIDKKIIKEWQAKIITHQSPIFKSGHIDVNQYSLFESSSDELNASFNPIELTPLPLSFWRWPKAMHEGPAVYFVMDEIIDSGENIILYIGETISAEKRWKGEHDCKDYISSYSDSLHKANVKAKLSIRFWLDVPTKTKERRKLEQKLIQAWLPPFNKETREIWATPFTSQIN
MGSDKIHHHHHHMKKVLGLVVSNRKLGNSEILVKEIINNIPEECNRELIRLTDLEIKPCKACYRCLQPNNACPVRDDFNFVIEKIREADALIIGVPVYFLGPHGYYKMLTDRLLGSQNYSQDTQGKPCIIVMPYGSEGWEGYSKIACMVMPKLLRMKLVDCWQIHASLPGESLLNPENISYARALGRELFNGREYHAESKECPICGSDLFRLINENQVECPICGSRGILKNNFSPDFSDSDYRRFSDHEMDEHFKGWLLEMKDRFSAEKNHLKELQKGYRNQNWWIKPCRLDEC
MGSDKIHHHHHHMKKVLVIRNDKLGDFMLAWPAFAMLKASDPSLKLTALVPTYTAEIARACPYLDEVIIDVPKGDKAAFQRLVNDIKAQRFDAMISFFSNTHNAKLAWKCRIPYRLAPATKWVQFFYNHRLVQRRSQSAKPEFAYNLDLARRFLQDQSIAVVEPRPPYLSFPKSAVDFQREFLCLQLNVDSSKKWIFVHSGSGGSANNLSLAQYAALIRGLLAQFDAYVILTAGPNESEKAHELAGLVQDARVVVYDKNKGLVDFAQSLACADLFIAGSTGPLHLSGALNVPTIGFYPSRRSATPLRWQPINDEAKHLAFCPSNDKASQTDLSKISIEEKLAKMIRFITKVWHAADK
MGSDKIHHHHHHMKKYLLYMVQVHLNFRRAELESLADLYNLSIDFSQYDANSPFFIVELENDQQAKDWIKRSILTRGIYEYWGQGTTLDELHKDIQRQSNFEQDLQLKFKHSTFKFEFECYKGNSKAKRVEQIETFRYLGFEGKIDMKHPQEVFTVIEEYTPISENVGGKTPTRIYFGRQVQMSNRSAMEKYDLKKRPYKGTTSFEAELSLVSANIAQVKPGTIMYDPFAGTGSFLVAGGHFGSLVIGSDIDGRMIRGKGAQVNISANFKKYGESSQFLDVLTMDFTNNALRNNLVIDTILCDPPYGIRESIKVLGAKDPERFLGKEDMEIDGEKAYLRRDYIPTKKPYALDSLLDDLLQYSSERLPIGGRLAFWMPTANDANIETIVPMHENLELKYNCVQEFNKWSRRLLVYINRGSTFNGSSNHGIKRSKDNFRERYFNNFN
MGSDKIHHHHHHMKLGFITSILDSWTYEEMMDFASGQGFECVEVACWPQEKAERRYAGVSHIDAERVNQDDAYAEHIVEYAKKSGVEISALAYYPNVMVADKEKSATAVEHLKQVILASKKLGVGMVTTFIGRDQTKNIQENLELVKEIWPPIIKLAEECDVKIAIENCPMLFGKEQWPGGQNLMTTPPIWREVFRILDSDHLGINYDPSHFIWQMIDYIRPLYEFKDKIFHVHYKDIKIYKDKLESCGIMAYPLEYMSPKIPGLGDVDWGKYVSALTDIGYDGYTCIEIEDKAFEDFKEKVENSLIISKRYLEQYVI
MGSDKIHHHHHHMKLLVTGATGKLGTKIVEHLLTKIEAENVIVSVRDPKKANELASRGIEVRHGDFDEPDTLQQAFAGVDRLLIISTDGEEATRIRQHTAAVEAAKAAGVGLIAYTSIANAEASQNFLARTHQVTEQLIRETGIPFLFFRNNWYLENEQSTIDAVRAGQDWLTSAGNGTVGWALQEDYAEAIATVLVDPKPTKSIYELSGPLHTQQDIAEALGQVLGRPVQVKQVDSATYTAIMQQAGVPEFLLPMLQAIQEGIAAGTLAVESQDFEHILDRPPVSLEDGLRQLVQR
MGSDKIHHHHHHMKLLWFAHRDIKHPKAGGAERTIYEVGKRLSKLNIGVNLVTVNPGNLLEYENVDGIIIYRIKGNIRTHLYVRKMIKKINPDVIIDDMGHAVPWFSPWFTDKRVIVFFRHLHAKSLPGQVNFFLAKIITLVEKLYPIIYKNNIFVTESDTSENDLIDLGIKKDRIVRIPPGVDLNLFHTGKKTDNVQLLYFGGLRKYKRPEYAITIYENLYKKIDNLKLIIVGDGILLNEIKDKVKGKNYNIVFTGKLEYDELAKIIRESWVNLHFSVTEGWGYSILEASASGTPSVAFKVPGVVDTIIDGYNGFLVNNINEFTDKILYIIKNEDKFILNSRKFAENFTWEKTADLWYKLLNGN
MGSDKIHHHHHHMKMFKLEEQKLKDLGAIITTNEIKQQPELWLETYEIYKSNKEKLSRFIDTISNNHGQFRVIFTGAGTSAYIGNSILPYLKNKNDIRKYIFEAIPTTDIVSNPYDYLKKDIPTLLISFARSGNSPESLAALNLGNKIVDNFYHLAITCNPEGELAKMTKNDENNYLLLMPSKSNDEGFAMTGSFSCMMLSAMLIFDSLEDDVEKSYINAIIEMGRNVIDRKDEIHELINKDFDRVVYLGSGGLGGLTQEAQLKLLELTAGKISTVYDSPMGFRHGPKSFIDENTLVFEFVSNCLYTRKYDLDVLEEIKRDKIAKFTCAVSVENENNFSGTKFEFKEKYNKLPDVYLAMPYILFAQTIALFVSVKVGNKPDTPSATGTVNRVVKGVTIYEY
MGSDKIHHHHHHMKNMTLDSLDMLSANILVNLYEKHSASSVAMEMNIPAPKVSRCLQHARMIFNDPLFIRKKHGLEPNEFTRQLYPLVKALVQCGEQLQQLESCHDLAASQVMVLYVSDLLIAELPQRLSSAISEAQLPISYELRTGSVDLVEDLAQGLVDLAIVSESSDRALQDDRLIVSPLTELTHLYLLCSHKHPLLQQEISLGNIANYPYLSAFGQLDKQAPDPFQRYCAQQRLSCHLAPVELGREGLAFHQLYRYLSDDKTVSLLPYSRVYEHSEQLPGLHVCCLSGMDTARLYRDQPYPRLYMLSRSGRGGAHLEWMKQEIGQLIKQNVH
MGSDKIHHHHHHMKNNHTLIIGGGIVGATLALKLAQDNKPVTLIDARPKRSEADWQQVLGQRDARVYALSLASIHLLKEVGAWQKIAASERKADYSQMQVWQLNGMGELLFGDSGDSNSSTGNSNVANNNDNTEPKMLGSMVEPAVIEHALWQRLSAPDVSQYLTVIAGHKVVDMDWLGATQGYRVTLDNGDVIDARLLVGADGRGSFVRKQAGIELDVLDYNQTAICCAIQTEKPHLATARQAMLPTGTLALLPLADITDEDKANPQHWQSIVWTLPRNQALALVAEHPCYIADKLAAASHYELGAIHKIESIASFPLAAQQAKSYVADNLVLIGDAAHGVHPLAGQGLNLGMLDVRALSKQLAHDYNRSGGTLWGANQTLRSYERLRRPHNSLMMHSFSALNWLFAGSLAQIRPVQQLRNEGMYRVSKIKPLMRLFAKQASGV
MGSDKIHHHHHHMKPIDLDKLDLLTLSILVSLYENKSATHVSRILDVPASKISRCLHTARLIFGDELFIRRKYGLVPNDYAGKIYPIAKEIVECAKHFNRLNSAEQSHNRYFELVIPGMIAYAYPRALMKAIKEHNKNIHINVSSWSSHSLESVTSDPHCIVMCCCKGPEEILCFDQKLQVEVLATMNRQYLLSCRKHPILKQDISLETIAKYPYINTFIGTQAPILNPFQEYCQAKDLSLNTEMTITSVSSLFDYLSDCQSLAITPYKAVYDMLDDDSGLHACQLSEYECNRLFEVVEPLKLVLVTHPSADNEDTAWLKQQIRELTHELI
MGSDKIHHHHHHMKPIDQITSWMQEALRPYFGLEPLSAEWDILTVRDGYFICFDGDTIRKRITATELNYQEEDVIIQTSEREVVLPRTARGKEKKLTYTSVSSVMADGIVFSAGIRTLNSGRYGYINVSNYRNSIRLPLPECRDLASKGEIVEWLQSYRERVPADYAHKLERLMHMKNRQHKTIPGDVFRVEIDLHTDGYVLVIGNLRQMQKDELFAEHSIWNDVMTMPLFVRPYLFRTTVRNPSLSEIVASPLSDKCWIVMDNAFLRGNYEYVGSKILAEEDILFPVGYGSSISAQKSDYRLSWGPNSISKASQDTGLKAGRSYMNNGAYSSVSADCFVDRGFPDWDKTLLNPEHLEAWEQVLAEFGFPPDTTYDAFAQRTDGMTRAAYLTYVAENKAYQRKGRAKKKGS

Soluble on expression in E. coli, soluble:
MGSDKIHHHHHHMKPLRKIRLGIVGCGIAARELHLPALKNLSHLFEITAVTSRTRSHAEEFAKMVGNPAVFDSYEELLESGLVDAVDLTLPVELNLPFIEKALRKGVHVICEKPISTDVETGKKVVELSEKSEKTVYIAENFRHVPAFWKAKELVESGAIGDPVFMNWQIWVGMDENNKYVHTDWRKKPKHVGGFLSDGGVHHAAAMRLILGEIEWISAVAKDLSPLLGGMDFLSSIFEFENGTVGNYTISYSLKGNERFEITGTKGKISISWDKIVLNEEEMKVPQENSYQKEFEDFYQVVAEGKPNDLGSPVQALKDLAFIEACVRSAGNKVFVSSLL
